In publication PMC9969015 one finds response data, which are given here for four substances.

In this test the target is S-RBD protein with C-terminal human Fc-tag (receptor-binding domain of SARS-CoV-2 S protein). Briefly: flow cytometry on cells. Conditions: 100 μg/ml S-RBD, 1 mM Mn2+, β1-KO 293 T cells, read off a plot. A general note: Flow cytometry measures light scatter and fluorescence of single cells or particles in a stream.

As for “wild-type α4β1 integrin expressed in β1-KO 293 T cells (from UniProt P13612;P05556) β1:D130A”, the response (parent: est. 1.5) amounted to 0.95 relative MFI.

Take “wild-type α4β7 integrin expressed in β1-KO 293 T cells (from UniProt P13612;P26010) β7:D119A”: the response (parent: est. 2.0) worked out at 1.2 relative MFI.

Turning to “wild-type α5β1 integrin expressed in β1-KO 293 T cells (from UniProt P08648;P05556) β1:D130A”, the response (parent: est. 1.2) is 0.93 relative MFI.

With “wild-type αLβ2 integrin expressed in β1-KO 293 T cells (from UniProt P20701;P05107) αL:D137A”, the response (parent: est. 1.3) is 0.97 relative MFI.
